Experiments:
[1] = Isoelectric point determination (IEF gel); assay type: physicochemical
Method: In this Example, experiments performed to determine the isoelectric point and cloud point of SELP47K (Example 1) are described. The isoelectric point of SELP47K was determined by electrophoresing 5 mg/ml SELP47K solution using Isoelectric Focusing Electrophoresis (IEF) gel and Novex electrophoresis apparatus along with protein standards markers.

[2] = Glass transition and decomposition temperature (DSC, DMA, TGA); assay type: physicochemical
Method: In this Example, experiments performed to determine the glass transition temperature (Tg) and decomposition temperature of SELP47K. (Example 1) are described. Approximately 10 mg of SELP47K material was crimped in an aluminum (Al) pan, cooled to <−150° C., then heated to >200° C. at 10° C./min under a He (helium) atmosphere. […] This initially appeared to be followed by another endothermic region and the analysis was stopped near 225° C. […] Another sample of material was examined by TGA and found to have mass loss (−8%) from room temperature to approximately 200° C., confirming the broad endotherm observed with the first sample.
A strip of SELP47K was examined by using a dynamic mechanical analyzer (DMA) over the range of −150 to 200° C. […] Another DSC sample was run, pre-heating at 100° C. for 1 hour initially to remove volatiles. The mass loss endotherm was mostly removed, and a transition at 188° C. (half-height) remained. This run was stopped and the sample cooled and examined.

[3] = Water solubility of SELP47K films; assay type: physicochemical
From the text: The coating appeared to be comprised of densely packed intertwining strands. […] Short, single/double strands of material were found in areas where the coating appeared to be less concentrated. Individual strands of material could be seen in the less concentrated, gray areas on the wafer. SEM analysis of the films provide the basis of water-solubility of SELP47K films.

facial skin [4] = experiment: Skin efficacy study: image analysis of Silflo replicas (fine line factors); assay type: in vivo, human
From the text: Eleven impaneled subjects (age 35-70 years) showing clear signs of facial skin aging were provided with a non-moisturizing soap, ([…]®), one week prior to the study and were instructed to use the provided soap to wash the face and were required to refrain from excessive UV exposure. After a seven-day conditioning phase, subjects were acclimated to the ambient temperature and humidity for thirty minutes. One side of the face of each subject was designated as the measurement side by random selection by computer. After 30-minute acclimation period, baseline digital photographs were taken, and instrumental measurements, skin replica samples and visual evaluations were made. Photographs were taken, with a Canfield Scientific Camera, of the full face, the periorbital area, and the temporal side of eye. Chromameter (Model CR300, Minolta) measurements were taken from the periorbital area directly under the eye (Chardon et al., Int. J. Cosmet. Sci., 13:191-208 [1991]). Silflo replicas (CuDerm Corporation, Dallas, Tx) were made from the periorbital area adjacent to the temporal side of the eye (Grove et al., J. Am. Acad. Dermatol., 21:631-637 [1998]; and Sun et al […] Conference, Mexico). […] Specifically, the fine line factors, which approximate the number and/or length of facial lines in the 10 evaluated bands of skin replica, were measured. […]

facial skin [5] = experiment: Skin efficacy study: Chromameter a* (skin redness); assay type: in vivo, human
From the text: Eleven impaneled subjects (age 35-70 years) showing clear signs of facial skin aging were provided with a non-moisturizing soap, (AVEENO®), one week prior to the study and were instructed to use the provided soap to wash the face and were required to refrain from excessive UV exposure. After a seven-day conditioning phase, subjects were acclimated to the ambient temperature and humidity for thirty minutes. One side of the face of each subject was designated as the measurement side by random selection by computer. After 30-minute acclimation period, baseline digital photographs were taken, and instrumental measurements, skin replica samples and visual evaluations were made. Photographs were taken, with a Canfield Scientific Camera, of the full face, the periorbital area, and the temporal side of eye. Chromameter (Model CR300, Minolta) measurements were taken from the periorbital area directly under the eye (Chardon et al., Int. J. Cosmet. Sci., 13:191-208 [1991]). Silflo replicas (CuDerm Corporation, Dallas, Tx) were made from the periorbital area adjacent to the temporal side of the eye (Grove et al., J. Am. Acad. Dermatol., 21:631-637 [1998]; and Sun et al 1997 IFSCC Conference, Mexico). […]
Chromometer values for L*, a*, and b* were read and total color value, E, was calculated for each subject. […]

## SELP47K: silk-elastin repeat sequence protein copolymer, head-[(GAGAGS)2(GVGVP)3GKGVP(GVGP)4(GAGAGS)2]13-tail (SEQ ID NO:19), 886 amino acids
[1]; 5 mg/ml solution, IEF gel
  Isoelectric Point: 10.4
[1]; stated in production example
  pI of the protein: 10.5
[2]
  decomposition temperature: 332 °C
[2]; film material, DMA/DSC
  glass transition: approximately 189 °C
[3]; film made out of 10% SELP47K solution
  water solubility of film: water-soluble
[3]; film made out of 20% SELP47K solution
  water solubility of film: water insoluble
Facial skin [4]; 5% aqueous solution applied once to face, 30 Minutes Post, baseline mean 284
  Fine Line Factors, Mean: 246
Facial skin [4]; 5% aqueous solution, 30 minutes after application vs baseline, p=0.05
  decrease in fine line factors: 13%
Facial skin [5]; 5% aqueous solution applied once to face, 30 Minutes Post, baseline mean 11.05
  Chromameter a* Score, Mean: 10.39
Facial skin [5]; 5% aqueous solution, 30 minutes post vs baseline, p=0.024
  decrease in average a* value (redness of the skin): 6%

Source: patent US20130059772A1, “Use of Repeat Sequence Protein Polymers in Personal Care Compositions” (DANISCO US INC., priority 2003, published 2013)
